Experimental data published in patent US8080400B2, “Crystal structure of monoacylglycerol lipase (MGLL)” (Janssen Pharmaceutica N.V., priority 2009, dated 2011).

Legend:
[1] = Size exclusion chromatography of protein purified in the absence of detergent (aggregation / monomer); format: physicochemical
Method: A pilot purification of wt-MGLL (hMGLL 1-303) (SEQ ID NO: 3), performed in the complete absence of detergent, generated no protein (data not shown). A second purification of wt-MGLL (hMGLL 1-303) (SEQ ID NO: 3) was done with detergent in the lysis buffer only. Frozen cell pellets for wt-MGLL (hMGLL 1-303) (SEQ ID NO: 3) were thawed, resuspended, and lysed in Bugbuster® lysis buffer for 1 hour at 4° C. Bugbuster® lysis buffer is a proprietary lysis buffer from […] that contains detergent. The lysate was clarified by centrifugation at 40,000×g for 1 hr. No detergent was added at this point or during the rest of the purification. From this point forward, the purification protocol and buffers were the same as described below for mut-MGLL. An average of 2.2 mg of wt-MGLL (hMGLL 1-303) (SEQ ID NO: 3) per liter of cell culture was obtained.
Mutant MGLL (mut-MGLL) constructs were purified in the absence of detergent. […] Fractions were analysed by SDS-PAGE. […] Purification yields were determined by Bradford assay using the protein assay kit from BioRad according to manufacturer's instruction with BSA as a standard (Bradford 1976).

[2] = Thermofluor thermal stability assay (Tm of MGLL protein); format: physicochemical; conditions: for Tm (midpoint of the melting transition): 0.05 mg/ml protein, 50 mM Pipes pH 7, 200 mM NaCl, 100 μM 1,8-ANS, 0.001% Tween
Source text: (§1) Thermofluor® assays detect small changes in the intrinsic melting temperature of proteins based on binding of ligands. Compounds that interact preferentially with the native form of the protein will increase the Tm, the temperature at which half of the protein is unfolded (Pantoliano et al. 2001). The technique monitors changes in the fluorescent intensity of dyes such as 1-anilinonaphthalene-8-sulfonic acid (1,8-ANS). The fluorescent dyes are quenched in aqueous environments but increase in fluorescence on binding to the hydrophobic core of denatured proteins.
as §1, with “The Thermofluor®” for “Thermofluor®”, “assay is a powerful tool to screen for small molecule inhibitors interacting with a protein's active site or allosteric site. The assay detects” for “assays detect”
Thermofluor® assays were conducted to characterize wt-MGLL (hMGLL 1-303) (SEQ ID NO: 3) and mut-MGLL (hMGLL 1-303 L169S, L176S) and evaluate if the MGLL mutants could be used for high-throughput screening using Thermofluor®. Three microliters of protein at a concentration of 0.05 mg/ml in 50 mM Pipes pH 7, 200 mM NaCl, 100 μM 1,8-ANS, and 0.001% Tween was added to pre-dispensed compound plates. Wells were overlaid with silicone oil (1 μL, Fluka, type DC 200) to prevent evaporation. Final compound concentrations varied from 150 to 0.15 μM. Assay plates were heated at a rate of 1° C./min for all experiments over a temperature range sufficient to measure protein unfolding. Fluorescence was measured by continuous illumination with UV light (Hamamatsu LC6) supplied via fiber optic and filtered through a custom band-pass filter (380-400 nm; >60D cutoff). Fluorescence emission was detected by measuring light intensity using a CCD camera (Sensys, Roper Scientific) filtered to detect emission at 500±25 nm, resulting in simultaneous and independent readings of all 384 wells. One or more images were collected at each temperature, and the sum of the pixel intensity in a given area of the assay plate was recorded vs temperature, and fit to standard equations to yield the Tm.

MGLL [3] = biological target: T1, MGLL (Homo sapiens, UniProt Q99685, L169S/L176S); test: Kinetic analysis: hydrolysis of coumarin arachidonate (C-A) by MGLL constructs; format: biochemical; conditions: substrate C-A
T1 construct: His tag followed by a TEV cleavage site (N); made in house; host or cells: Sf9 insect cells (baculovirus)
T1 sequence (Q99685 with tags, fused parts or gaps L169S/L176S): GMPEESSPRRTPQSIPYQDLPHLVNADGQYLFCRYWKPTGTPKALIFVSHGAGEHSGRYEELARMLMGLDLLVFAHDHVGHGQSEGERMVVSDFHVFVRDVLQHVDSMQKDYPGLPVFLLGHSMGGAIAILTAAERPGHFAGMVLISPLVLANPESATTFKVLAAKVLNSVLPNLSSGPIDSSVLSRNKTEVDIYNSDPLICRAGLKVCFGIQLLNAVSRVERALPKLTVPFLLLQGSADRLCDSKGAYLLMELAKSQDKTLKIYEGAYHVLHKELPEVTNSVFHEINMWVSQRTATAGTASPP
Source text: A small fluorescent substrate, 4-methyl coumarin butyrate (4MC-B) was used to compare the activity of the engineered mutants to the activity of wt-MGLL (hMGLL 1-303) (SEQ ID NO: 3). The catalytic efficiency (kcat/KM) for the hydrolysis of the 4MC-B was similar for wt-MGLL (hMGLL 1-303) (SEQ ID NO: 3) and all MGLL mutants tested (Table 2). A larger more aliphatic fluorescent substrate, Coumarin Arachidonate (C-A), structurally more closely related to the MGLL natural substrate, 2-AG, was used to compare the activity of wt-MGLL (hMGLL 1-303) (SEQ ID NO: 3) to TEV cleaved mut-MGLL (hMGLL 1-303 L169S, L176S) (SEQ ID NO: 5).
The Michaelis-Menten parameters for the hydrolysis of 4-methylcoumarin butyrate (4MC-B) and coumarin arachidonate (C-A) substrate were determined using 4-5 nM of MGLL in 20 mM Pipes pH 7 and 150 mM NaCl at 37° C. The change in fluorescence due to substrate hydrolysis was monitored using excitation/emission wavelengths of 335/440 in a Safire II instrument from Tecan. The hyperbolic rates versus substrate concentration curves for the hydrolysis of 4MC-B were fit to the Michaelis-Menten equation using Excel.
The apparent kcat/KM ratio for the hydrolysis of C-A was determined at [S]<<KM. […] The kcat/KM values reported are the average from independent values determined from five substrate concentrations ranging from 700 to 40 nM.

MGLL [4] = test: Kinetic analysis: hydrolysis of 4-methylcoumarin butyrate (4MC-B) by MGLL constructs; format: biochemical, human; conditions: substrate 4MC-B; 4-5 nM MGLL, 20 mM Pipes pH 7, 150 mM NaCl, 37° C.; average of 2 or 4 separate assays
Method: The Michaelis-Menten parameters for the hydrolysis of 4-methylcoumarin butyrate (4MC-B) and coumarin arachidonate (C-A) substrate were determined using 4-5 nM of MGLL in 20 mM Pipes pH 7 and 150 mM NaCl at 37° C. […] The hyperbolic rates versus substrate concentration curves for the hydrolysis of 4MC-B were fit to the Michaelis-Menten equation using Excel.

B1: mut-MGLL. 1-303, L169S, L176S: engineered human MGLL 1-303 with cap-domain mutations L169S, L176S; SEQ ID NO: 5 after TEV cleavage (protein)
chain: GMPEESSPRRTPQSIPYQDLPHLVNADGQYLFCRYWKPTGTPKALIFVSHGAGEHSGRYEELARMLMGLDLLVFAHDHVGHGQSEGERMVVSDFHVFVRDVLQHVDSMQKDYPGLPVFLLGHSMGGAIAILTAAERPGHFAGMVLISPLVLANPESATTFKVLAAKVLNSVLPNLSSGPIDSSVLSRNKTEVDIYNSDPLICRAGLKVCFGIQLLNAVSRVERALPKLTVPFLLLQGSADRLCDSKGAYLLMELAKSQDKTLKIYEGAYHVLHKELPEVTNSVFHEINMWVSQRTATAGTASPP
monomer [1]: 90%
quality of the Thermofluor melting transition [2]: strong transition
Tm (midpoint of the melting transition) [2]: 56.7 °C
catalytic efficiency for hydrolysis of C-A compared with wt-MGLL (MGLL [3]): equivalent

B2: wt-MGLL.1-303: wild-type human MGLL isoform 2, amino acids 1-303, with N-terminal His tag and TEV site (SEQ ID NO: 3) (protein)
chain: MVDHHHHHHENLYFQGMPEESSPRRTPQSIPYQDLPHLVNADGQYLFCRYWKPTGTPKALIFVSHGAGEHSGRYEELARMLMGLDLLVFAHDHVGHGQSEGERMVVSDFHVFVRDVLQHVDSMQKDYPGLPVFLLGHSMGGAIAILTAAERPGHFAGMVLISPLVLANPESATTFKVLAAKVLNLVLPNLSLGPIDSSVLSRNKTEVDIYNSDPLICRAGLKVCFGIQLLNAVSRVERALPKLTVPFLLLQGSADRLCDSKGAYLLMELAKSQDKTLKIYEGAYHVLHKELPEVTNSVFHEINMWVSQRTATAGTASPP
modifications: N-terminal His tag and TEV site
quality of the Thermofluor melting transition [2]: very poor transition
Tm (midpoint of the melting transition) [2]: 58 °C

B3: mut-MGLL 1-303, L169S, L176S, K226A: engineered human MGLL 1-303 with L169S, L176S and surface mutation K226A (protein)
chain: MVDHHHHHHENLYFQGMPEESSPRRTPQSIPYQDLPHLVNADGQYLFCRYWKPTGTPKALIFVSHGAGEHSGRYEELARMLMGLDLLVFAHDHVGHGQSEGERMVVSDFHVFVRDVLQHVDSMQKDYPGLPVFLLGHSMGGAIAILTAAERPGHFAGMVLISPLVLANPESATTFKVLAAKVLNSVLPNLSSGPIDSSVLSRNKTEVDIYNSDPLICRAGLKVCFGIQLLNAVSRVERALPALTVPFLLLQGSADRLCDSKGAYLLMELAKSQDKTLKIYEGAYHVLHKELPEVTNSVFHEINMWVSQRTATAGTASPP
Km (MGLL [4]): 110 µM

B4: mut-MGLL. 1-303, L169S, L176S, K165A: engineered human MGLL 1-303 with L169S, L176S and surface mutation K165A (protein)
chain: MVDHHHHHHENLYFQGMPEESSPRRTPQSIPYQDLPHLVNADGQYLFCRYWKPTGTPKALIFVSHGAGEHSGRYEELARMLMGLDLLVFAHDHVGHGQSEGERMVVSDFHVFVRDVLQHVDSMQKDYPGLPVFLLGHSMGGAIAILTAAERPGHFAGMVLISPLVLANPESATTFKVLAAAVLNSVLPNLSSGPIDSSVLSRNKTEVDIYNSDPLICRAGLKVCFGIQLLNAVSRVERALPKLTVPFLLLQGSADRLCDSKGAYLLMELAKSQDKTLKIYEGAYHVLHKELPEVTNSVFHEINMWVSQRTATAGTASPP
Km (MGLL [4]): 137 µM

B5: mut-MGLL. 1-303, L169S, L176S, K160A: engineered human MGLL 1-303 with L169S, L176S and surface mutation K160A (protein)
chain: MVDHHHHHHENLYFQGMPEESSPRRTPQSIPYQDLPHLVNADGQYLFCRYWKPTGTPKALIFVSHGAGEHSGRYEELARMLMGLDLLVFAHDHVGHGQSEGERMVVSDFHVFVRDVLQHVDSMQKDYPGLPVFLLGHSMGGAIAILTAAERPGHFAGMVLISPLVLANPESATTFAVLAAKVLNSVLPNLSSGPIDSSVLSRNKTEVDIYNSDPLICRAGLKVCFGIQLLNAVSRVERALPKLTVPFLLLQGSADRLCDSKGAYLLMELAKSQDKTLKIYEGAYHVLHKELPEVTNSVFHEINMWVSQRTATAGTASPP
Km (MGLL [4]): 90 µM

B6: mut-MGLL 1-303, L169S, L176S, K36A, K226A: engineered human MGLL 1-303 with L169S, L176S and surface mutations K36A, K226A (protein)
chain: MVDHHHHHHENLYFQGMPEESSPRRTPQSIPYQDLPHLVNADGQYLFCRYWAPTGTPKALIFVSHGAGEHSGRYEELARMLMGLDLLVFAHDHVGHGQSEGERMVVSDFHVFVRDVLQHVDSMQKDYPGLPVFLLGHSMGGAIAILTAAERPGHFAGMVLISPLVLANPESATTFKVLAAKVLNSVLPNLSSGPIDSSVLSRNKTEVDIYNSDPLICRAGLKVCFGIQLLNAVSRVERALPALTVPFLLLQGSADRLCDSKGAYLLMELAKSQDKTLKIYEGAYHVLHKELPEVTNSVFHEINMWVSQRTATAGTASPP
Km (MGLL [4]): 123 µM
